Experimental data published in article PMC4655416, “The activity of protein phosphatase 5 towards native clients is modulated by the middle- and C-terminal domains of Hsp90” (Scientific Reports, 2015).
Values joined by “and” are separate entries in the source; they are usually repeats but may differ in a detail not shown here. Identical values can stand only once.

Key:
[1] = target: T1, C. elegans Hsp90 (CeHsp90), full-length (C. elegans, UniProt Q18688 1-702); assay: AUC; sedimentation velocity with UV/VIS absorbance optics (OD280); PPH-5 titrated to a constant concentration of CeHsp90 (4 μM) or CeHsp90-MC (3.5 μM); global fit to sequential binding of a first and second PPH-5; details: both partners purified
T1 construct: Hsp90/DAF-21 of C. elegans, full-length; also called Hsp90/DAF-21; nematode Hsp90; source: E. coli BL21-CodonPlus(DE3)-RIL, purified (Ni-NTA, Resource Q, gel filtration); not shown: His6, N-terminal, kept

[2] = target: T2, CeHsp90-derived MEEVD-containing peptide AEEDASRMEEVD (C. elegans); assay: cell-based or functional assay
T2 peptide: AEEDASRMEEVD

[3] = target: T1, C. elegans Hsp90 (CeHsp90), full-length; assay: cell-based or functional assay

B1: protein phosphatase 5 from C. elegans (PPH-5) (enzyme, UniProt Q9NES8 1-496, looked up)
chain: MAATITDDIVATVLESIEEKSYEDEKEKAGMIKDEANQFFKDQVYDVAADLYSVAIEIHPTAVLYGNRAQAYLKKELYGSALEDADNAIAIDPSYVKGFYRRATANMALGRFKKALTDYQAVVKVCPNDKDARAKFDECSKIVRRQKFEAAISTDHDKKTVAETLDINAMAIEDSYDGPRLEDKITKEFVLQLIKTFKNQQKLHKKYAFKMLLEFYNYVKSLPTMVEITVPTGKKFTICGDVHGQFYDLCNIFEINGYPSETNPYLFNGDFVDRGSFSVETIFTMIGFKLLYPNHFFMSRGNHESDVMNKMYGFEGEVKAKYTQQMCDMFTETFCWLPLCHLINEKIFVCHGGLFKEDGVTLEDIRKTDRNRQPPDEGIMCDLLWSDPQPINGRSPSKRGVGCQFGPDVTSKWCETNGIEYVVRSHEVKPEGYEMHHNGQCFTVFSAPNYCDQMNNKGAFITITGDNLTPRFTPFDAVPHPKLPPMAYANSLFGFN
notes: protein phosphatase 5 (PPH-5) of C. elegans; also called the phosphatase; source: E. coli BL21-CodonPlus(DE3)-RIL, purified (Ni-NTA, Resource Q, gel filtration); not shown: His6, N-terminal, kept
Kd [1]: ~1000 nM and 1000 to 3000 nM
stoichiometry N [1]: 2 PPH-5 per CeHsp90 dimer
pNPP turnover by PPH-5 in presence of 60 μM peptide … [2]: ~6 fold
kcat of PPH-5 towards the model peptide KRpTIRR (50 μM) with 3 μM CeHsp90 [3]: 0.133 s⁻¹
